The values that follow come from patent US20120066777A1 (SHIONOGI, published 2012).

The target of assay [1] is T1, human recombinant CCDC3 protein (human, UniProt Q9BQI4 22-270).
T1 construct: Secreted from Freestyle293 cells, purified from culture supernatant, 3xFlag tag removed with thrombin (31 kDa); the C-terminus at 270 follows from the C-terminus peptide 259-270; Also used biotin-labelled (PEO-maleimide biotin) as tracer; also called human CCDC3 recombinant protein; human CCDC3 protein
T1 sequence: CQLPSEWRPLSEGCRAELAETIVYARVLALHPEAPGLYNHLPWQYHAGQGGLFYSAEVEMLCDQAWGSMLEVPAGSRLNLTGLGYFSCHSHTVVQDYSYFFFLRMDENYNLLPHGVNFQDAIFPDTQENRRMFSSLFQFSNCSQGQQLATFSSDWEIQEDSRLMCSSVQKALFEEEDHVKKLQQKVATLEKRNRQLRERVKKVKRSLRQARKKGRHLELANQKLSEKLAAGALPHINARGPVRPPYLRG
The experiment in a line: displacement ELISA: captured antibody, unlabelled human recombinant CCDC3 (0.01 to 100 nM) against biotin-human recombinant CCDC3. How it is done:
A buffer A containing 10 μl of CCDC3 antibody was added to the anti-mouse IgG antibody-anchored plate, and 10 μl of 0.01 to 100 nM human recombinant CCDC3 was added. The mixture was allowed to react at 4° C. for 16 hours after adding buffer A (10 μl) that contained 1 ng of biotin-human recombinant CCDC3 protein and 4 ng of Streptavidin-HRP (PIERCE). Each well was washed three times with washing liquid (90 μl), and 25 μl of TMB+Substrate-Chromogen (DAKO) was added to develop color at room temperature for 30 min. The reaction was stopped by adding 25 μl of 0.5 M sulfuric acid, and absorbance at 450 nm was measured.
On the technique in general: ELISA stands for enzyme-linked immunosorbent assay.

In assay [2] the target is T2, human CCDC3 protein C-terminus partial peptide (259-270) (human, PEO-maleimide activated biotin on the added N-terminal Cys).
T2 construct: the immunogen was the 12 mer conjugated to KLH; also called biotin-human CCDC3 protein C-terminus region peptide
The experiment in a line: raised against the peptide-KLH; hybridoma screened by ELISA on the biotin-labelled peptide. On the procedure:
Specific antibody producing cells were screened 10 days after the cells were fused. Screening was performed by ELISA, as follows. A Tris buffer (50 mM Tris-HCl, pH 7.5, 35 μl) containing anti-mouse IgG antibodies (0.35 μg; Shibayagi Co., Ltd.) was added to each well of a 384-well microtiter plate (Nunc), and the antibodies were immobilized at 4° C. for 16 hours. The wells were washed once with 90 μl of washing liquid (physiological saline containing 0.01% Tween 20), and left unattended at room temperature for 2 hours for blocking after adding […] of Block Ace (Dainippon Pharma) (anti-mouse IgG antibody-anchored plate). After washing each well once with washing liquid (90 μl), a hybridoma culture supernatant (15 μl) and buffer A (10 μl; 50 mM Tris buffer containing 0.5% bovine serum albumin, 0.01% Tween 80, 0.05% Proclin 150, and 0.5 M NaCl; pH 7.4) were added. When the immunogen was the peptide-KLH conjugate, buffer A (10 μl) containing 0.02 ng of the biotin-human CCDC3 protein C-terminus region peptide and 2 ng of Streptavidin-HRP (PIERCE) was added. When the immunogen was the human recombinant CCDC3 protein or its KLH-conjugate, buffer A (10 μl) containing 1 ng of the biotin-human recombinant CCDC3 protein and 4 ng of Streptavidin-HRP (PIERCE) was added. […] The reaction was stopped by adding 25 μl of 0.5 M sulfuric acid, and absorbance at 450 nm was measured.

B1: 11E10 antibody (antibody, IgG2b, V domains shown)
VH: QVQLQQSGPELVKPGASVKISCKASGYSFRSYYIHWMKQSPGQGLEWIAWIYPGGGKIYYNDNEKFKDKVTLTADTSSSTAYMQLTGLTSEDSAVYFCARWGGYYVGSILDYWGQGTSVTVSS
VL: DGDIVMTQSQKFLSTSVGDRVSVTCKASQNVDNNVAWYQQRPGQSPKPLIYLTSSRYSGVPDRFTGSGSGTDFTLTITNVQSEDLAEYFCQQYKTYPLTFSVGTKLELKRA
notes: Mouse hybridoma monoclonal, isotype IgG2b; From a mouse immunized with antigen 2 (human recombinant CCDC3-KLH conjugate); also called human anti-CCDC3 antibody 11E10
As a reminder, the IC50 is the concentration that inhibits the measured activity by half. Turning to B1, in assay [1], the concentration for half-maximal inhibition (IC50) is 0.1 nM.

B2: 3H6 antibody (antibody, IgG2b, V domains shown)
VH: QIQLVQSGPELKKPGETVKISCKASGYTFTNYGMIWVKQAPGKDLKWMAWINTYSGEPTCADDFKGRFAFSLETSASTAYLQINNLKNEDMATYFCARDDGYYGYFDYWGQGTTLTVSS
VL: DVVMTQTPLSLPVSLGDQASISCRSSQTLVHSDGNTYLHWYLQKPGQSPKLLIYKISNRFSGVPDRFSGSGSGTDFTLKISRVEAEDLGVYFCSQSTHVPPTFGGGTKLEIKR
notes: Mouse hybridoma monoclonal, isotype IgG2b; From a mouse immunized with antigen 1 (human CCDC3 C-terminus peptide 259-270 conjugated to KLH); Used biotinylated as capture antibody in the sandwich ELISA; also called human anti-CCDC3 antibody 3H6
Consider B2, for which the binding result in assay [2] is reported as “binds”. For the same molecule, the IC50 in assay [1] is 9.4 nM.

B3: 6G12 antibody (antibody, IgG1, V domains shown)
VH: QVQLQQPGAELVRPGASVKMSCKASGYTFSSYLMDWVKQRPGQGFECIGNINPNTGSTIYNERFKGKAKLTVDKSSSTAYMQLISLTSEDSAVYYCAADGYYAPFTYWGQGTLVTVSA
VL: DIVMTQAAPSVPVTPGESVSISCRSSKSLLHNNGNTYLYWFLQRPGQSPQLLIYRMSNLASGVPDRFSGSGSGTAFTLRISRVEAEDVGVYYCMQHLEYPFTFGAGTKLELKR
notes: Mouse hybridoma monoclonal, isotype IgG1; From a mouse immunized with antigen 3 (human recombinant CCDC3); Used biotinylated as capture antibody in the sandwich ELISA; also called human anti-CCDC3 antibody 6G12
As for B3, the IC50 in assay [1] amounted to 3.2 nM.
